Data on two molecules can be found in publication PMC7145319 (2019).

This assay concerns the target T1, MOG35-55 peptide on I-Ab (mouse).
T1 peptide: GWYRSPFSRVV
Description: activation reporter or marker.

B1: EAE2-CD4 (TCR)
alpha TRAV12-1 TRAJ23 CDR3: CALRNYNQGKLIF
beta TRBV16 TRBJ1-4 CDR3: CASSLDQGWDERLFF
Consider B1, for which the binding result was “recognises”.

B2: EAE3-CD4 (TCR)
alpha TRAV14D-1 TRAJ43 CDR3: CAASGANNNNAPRF
beta TRBV3 TRBJ2-5 CDR3: CASSLEGHQDTQYF
On to B2, for which the binding result is on record as “recognises”.
